± gives the uncertainty stated by the source.
B1: Gamma-crystallin C, residues 4 to 79; numbered along this chain, P07315 (parent)
chain: ITFYEDRAFQGRSYETTTDCPNLQPYFSRCNSIRVESGCWMLYERPNYQGQQYLLRRGEYPDYQQWMGLSDSIRSC

Variants of: B1
Assay: abundance fitness (aPCA) (normalised: wild type 0, dead -1); higher = more abundant; growth selection in yeast, the domain comes from the species named
Conditions: Homo sapiens

Row | Variant | abundance fitness
1 | IYFYEDRAFQGRSYETTTDCPNLQPYFSRCNSIRVESGCWMLYERPNYQGQQYLLRRGEYPDYQQWMGLSDSIRSC | 0.088 ± 0.34
2 | ITCYEDRAFQGRSYETTTDCPNLQPYFSRCNSIRVESGCWMLYERPNYQGQQYLLRRGEYPDYQQWMGLSDSIRSC | -0.586 ± 0.13
3 | ITGYEDRAFQGRSYETTTDCPNLQPYFSRCNSIRVESGCWMLYERPNYQGQQYLLRRGEYPDYQQWMGLSDSIRSC | -1.23 ± 0.23
4 | ITIYEDRAFQGRSYETTTDCPNLQPYFSRCNSIRVESGCWMLYERPNYQGQQYLLRRGEYPDYQQWMGLSDSIRSC | -0.368 ± 0.18
5 | ITKYEDRAFQGRSYETTTDCPNLQPYFSRCNSIRVESGCWMLYERPNYQGQQYLLRRGEYPDYQQWMGLSDSIRSC | -0.991 ± 0.27
6 | ITLYEDRAFQGRSYETTTDCPNLQPYFSRCNSIRVESGCWMLYERPNYQGQQYLLRRGEYPDYQQWMGLSDSIRSC | -0.036 ± 0.078
7 | ITMYEDRAFQGRSYETTTDCPNLQPYFSRCNSIRVESGCWMLYERPNYQGQQYLLRRGEYPDYQQWMGLSDSIRSC | -0.071 ± 0.085
8 | ITNYEDRAFQGRSYETTTDCPNLQPYFSRCNSIRVESGCWMLYERPNYQGQQYLLRRGEYPDYQQWMGLSDSIRSC | -0.826 ± 0.21
9 | ITPYEDRAFQGRSYETTTDCPNLQPYFSRCNSIRVESGCWMLYERPNYQGQQYLLRRGEYPDYQQWMGLSDSIRSC | -1 ± 0.36
10 | ITQYEDRAFQGRSYETTTDCPNLQPYFSRCNSIRVESGCWMLYERPNYQGQQYLLRRGEYPDYQQWMGLSDSIRSC | -0.94 ± 0.23
11 | ITRYEDRAFQGRSYETTTDCPNLQPYFSRCNSIRVESGCWMLYERPNYQGQQYLLRRGEYPDYQQWMGLSDSIRSC | -1.18 ± 0.28
12 | ITSYEDRAFQGRSYETTTDCPNLQPYFSRCNSIRVESGCWMLYERPNYQGQQYLLRRGEYPDYQQWMGLSDSIRSC | -1.01 ± 0.27
13 | ITTYEDRAFQGRSYETTTDCPNLQPYFSRCNSIRVESGCWMLYERPNYQGQQYLLRRGEYPDYQQWMGLSDSIRSC | -0.753 ± 0.27
14 | ITVYEDRAFQGRSYETTTDCPNLQPYFSRCNSIRVESGCWMLYERPNYQGQQYLLRRGEYPDYQQWMGLSDSIRSC | -1.08 ± 0.13
15 | ITWYEDRAFQGRSYETTTDCPNLQPYFSRCNSIRVESGCWMLYERPNYQGQQYLLRRGEYPDYQQWMGLSDSIRSC | -0.789 ± 0.14
16 | ITFAEDRAFQGRSYETTTDCPNLQPYFSRCNSIRVESGCWMLYERPNYQGQQYLLRRGEYPDYQQWMGLSDSIRSC | -0.989 ± 0.15
17 | ITFEEDRAFQGRSYETTTDCPNLQPYFSRCNSIRVESGCWMLYERPNYQGQQYLLRRGEYPDYQQWMGLSDSIRSC | -0.848 ± 0.27
18 | ITFFEDRAFQGRSYETTTDCPNLQPYFSRCNSIRVESGCWMLYERPNYQGQQYLLRRGEYPDYQQWMGLSDSIRSC | 0.333 ± 0.4
19 | ITFGEDRAFQGRSYETTTDCPNLQPYFSRCNSIRVESGCWMLYERPNYQGQQYLLRRGEYPDYQQWMGLSDSIRSC | -0.863 ± 0.14
20 | ITFHEDRAFQGRSYETTTDCPNLQPYFSRCNSIRVESGCWMLYERPNYQGQQYLLRRGEYPDYQQWMGLSDSIRSC | -0.364 ± 0.13
21 | ITFKEDRAFQGRSYETTTDCPNLQPYFSRCNSIRVESGCWMLYERPNYQGQQYLLRRGEYPDYQQWMGLSDSIRSC | -0.862 ± 0.31
22 | ITFLEDRAFQGRSYETTTDCPNLQPYFSRCNSIRVESGCWMLYERPNYQGQQYLLRRGEYPDYQQWMGLSDSIRSC | -0.984 ± 0.16
23 | ITFNEDRAFQGRSYETTTDCPNLQPYFSRCNSIRVESGCWMLYERPNYQGQQYLLRRGEYPDYQQWMGLSDSIRSC | -0.631 ± 0.28
24 | ITFPEDRAFQGRSYETTTDCPNLQPYFSRCNSIRVESGCWMLYERPNYQGQQYLLRRGEYPDYQQWMGLSDSIRSC | -1.12 ± 0.34

Row | Variant | abundance fitness
25 | ITFQEDRAFQGRSYETTTDCPNLQPYFSRCNSIRVESGCWMLYERPNYQGQQYLLRRGEYPDYQQWMGLSDSIRSC | -1.01 ± 0.39
26 | ITFREDRAFQGRSYETTTDCPNLQPYFSRCNSIRVESGCWMLYERPNYQGQQYLLRRGEYPDYQQWMGLSDSIRSC | -0.99 ± 0.16
27 | ITFSEDRAFQGRSYETTTDCPNLQPYFSRCNSIRVESGCWMLYERPNYQGQQYLLRRGEYPDYQQWMGLSDSIRSC | -0.725 ± 0.12
28 | ITFVEDRAFQGRSYETTTDCPNLQPYFSRCNSIRVESGCWMLYERPNYQGQQYLLRRGEYPDYQQWMGLSDSIRSC | -1.11 ± 0.17
29 | ITFWEDRAFQGRSYETTTDCPNLQPYFSRCNSIRVESGCWMLYERPNYQGQQYLLRRGEYPDYQQWMGLSDSIRSC | -0.094 ± 0.13
30 | ITFYDDRAFQGRSYETTTDCPNLQPYFSRCNSIRVESGCWMLYERPNYQGQQYLLRRGEYPDYQQWMGLSDSIRSC | -0.008 ± 0.15
31 | ITFYGDRAFQGRSYETTTDCPNLQPYFSRCNSIRVESGCWMLYERPNYQGQQYLLRRGEYPDYQQWMGLSDSIRSC | -0.124 ± 0.055
32 | ITFYIDRAFQGRSYETTTDCPNLQPYFSRCNSIRVESGCWMLYERPNYQGQQYLLRRGEYPDYQQWMGLSDSIRSC | 0.122 ± 0.2
33 | ITFYKDRAFQGRSYETTTDCPNLQPYFSRCNSIRVESGCWMLYERPNYQGQQYLLRRGEYPDYQQWMGLSDSIRSC | -0.162 ± 0.16
34 | ITFYLDRAFQGRSYETTTDCPNLQPYFSRCNSIRVESGCWMLYERPNYQGQQYLLRRGEYPDYQQWMGLSDSIRSC | -0.334 ± 0.16
35 | ITFYMDRAFQGRSYETTTDCPNLQPYFSRCNSIRVESGCWMLYERPNYQGQQYLLRRGEYPDYQQWMGLSDSIRSC | 0.097 ± 0.12
36 | ITFYPDRAFQGRSYETTTDCPNLQPYFSRCNSIRVESGCWMLYERPNYQGQQYLLRRGEYPDYQQWMGLSDSIRSC | -0.127 ± 0.13
37 | ITFYQDRAFQGRSYETTTDCPNLQPYFSRCNSIRVESGCWMLYERPNYQGQQYLLRRGEYPDYQQWMGLSDSIRSC | -0.076 ± 0.17
38 | ITFYRDRAFQGRSYETTTDCPNLQPYFSRCNSIRVESGCWMLYERPNYQGQQYLLRRGEYPDYQQWMGLSDSIRSC | 0.014 ± 0.067
39 | ITFYTDRAFQGRSYETTTDCPNLQPYFSRCNSIRVESGCWMLYERPNYQGQQYLLRRGEYPDYQQWMGLSDSIRSC | -0.156 ± 0.078
40 | ITFYVDRAFQGRSYETTTDCPNLQPYFSRCNSIRVESGCWMLYERPNYQGQQYLLRRGEYPDYQQWMGLSDSIRSC | -0.107 ± 0.078
41 | ITFYWDRAFQGRSYETTTDCPNLQPYFSRCNSIRVESGCWMLYERPNYQGQQYLLRRGEYPDYQQWMGLSDSIRSC | -0.209 ± 0.11
42 | ITFYEARAFQGRSYETTTDCPNLQPYFSRCNSIRVESGCWMLYERPNYQGQQYLLRRGEYPDYQQWMGLSDSIRSC | -0.103 ± 0.11
43 | ITFYECRAFQGRSYETTTDCPNLQPYFSRCNSIRVESGCWMLYERPNYQGQQYLLRRGEYPDYQQWMGLSDSIRSC | 0.069 ± 0.19
44 | ITFYEERAFQGRSYETTTDCPNLQPYFSRCNSIRVESGCWMLYERPNYQGQQYLLRRGEYPDYQQWMGLSDSIRSC | -0.038 ± 0.12
45 | ITFYEFRAFQGRSYETTTDCPNLQPYFSRCNSIRVESGCWMLYERPNYQGQQYLLRRGEYPDYQQWMGLSDSIRSC | -0.204 ± 0.14
46 | ITFYEGRAFQGRSYETTTDCPNLQPYFSRCNSIRVESGCWMLYERPNYQGQQYLLRRGEYPDYQQWMGLSDSIRSC | -0.009 ± 0.055
47 | ITFYEHRAFQGRSYETTTDCPNLQPYFSRCNSIRVESGCWMLYERPNYQGQQYLLRRGEYPDYQQWMGLSDSIRSC | 0.115 ± 0.23
48 | ITFYEKRAFQGRSYETTTDCPNLQPYFSRCNSIRVESGCWMLYERPNYQGQQYLLRRGEYPDYQQWMGLSDSIRSC | 0.086 ± 0.23

Row | Variant | abundance fitness
49 | ITFYELRAFQGRSYETTTDCPNLQPYFSRCNSIRVESGCWMLYERPNYQGQQYLLRRGEYPDYQQWMGLSDSIRSC | 0.032 ± 0.083
50 | ITFYEMRAFQGRSYETTTDCPNLQPYFSRCNSIRVESGCWMLYERPNYQGQQYLLRRGEYPDYQQWMGLSDSIRSC | 0.159 ± 0.25
51 | ITFYENRAFQGRSYETTTDCPNLQPYFSRCNSIRVESGCWMLYERPNYQGQQYLLRRGEYPDYQQWMGLSDSIRSC | -0.035 ± 0.21
52 | ITFYEPRAFQGRSYETTTDCPNLQPYFSRCNSIRVESGCWMLYERPNYQGQQYLLRRGEYPDYQQWMGLSDSIRSC | -0.819 ± 0.45
53 | ITFYEQRAFQGRSYETTTDCPNLQPYFSRCNSIRVESGCWMLYERPNYQGQQYLLRRGEYPDYQQWMGLSDSIRSC | 0.086 ± 0.22
54 | ITFYERRAFQGRSYETTTDCPNLQPYFSRCNSIRVESGCWMLYERPNYQGQQYLLRRGEYPDYQQWMGLSDSIRSC | 0.003 ± 0.059
55 | ITFYESRAFQGRSYETTTDCPNLQPYFSRCNSIRVESGCWMLYERPNYQGQQYLLRRGEYPDYQQWMGLSDSIRSC | -0.065 ± 0.097
56 | ITFYETRAFQGRSYETTTDCPNLQPYFSRCNSIRVESGCWMLYERPNYQGQQYLLRRGEYPDYQQWMGLSDSIRSC | 0.057 ± 0.13
57 | ITFYEVRAFQGRSYETTTDCPNLQPYFSRCNSIRVESGCWMLYERPNYQGQQYLLRRGEYPDYQQWMGLSDSIRSC | -0.164 ± 0.14
58 | ITFYEWRAFQGRSYETTTDCPNLQPYFSRCNSIRVESGCWMLYERPNYQGQQYLLRRGEYPDYQQWMGLSDSIRSC | -0.208 ± 0.072
59 | ITFYEYRAFQGRSYETTTDCPNLQPYFSRCNSIRVESGCWMLYERPNYQGQQYLLRRGEYPDYQQWMGLSDSIRSC | 0.032 ± 0.23
60 | ITFYEDAAFQGRSYETTTDCPNLQPYFSRCNSIRVESGCWMLYERPNYQGQQYLLRRGEYPDYQQWMGLSDSIRSC | -0.031 ± 0.089
61 | ITFYEDCAFQGRSYETTTDCPNLQPYFSRCNSIRVESGCWMLYERPNYQGQQYLLRRGEYPDYQQWMGLSDSIRSC | -0.002 ± 0.15
62 | ITFYEDDAFQGRSYETTTDCPNLQPYFSRCNSIRVESGCWMLYERPNYQGQQYLLRRGEYPDYQQWMGLSDSIRSC | -0.153 ± 0.32
63 | ITFYEDFAFQGRSYETTTDCPNLQPYFSRCNSIRVESGCWMLYERPNYQGQQYLLRRGEYPDYQQWMGLSDSIRSC | -0.082 ± 0.17
64 | ITFYEDGAFQGRSYETTTDCPNLQPYFSRCNSIRVESGCWMLYERPNYQGQQYLLRRGEYPDYQQWMGLSDSIRSC | -0.02 ± 0.064
65 | ITFYEDIAFQGRSYETTTDCPNLQPYFSRCNSIRVESGCWMLYERPNYQGQQYLLRRGEYPDYQQWMGLSDSIRSC | -0.141 ± 0.31
66 | ITFYEDKAFQGRSYETTTDCPNLQPYFSRCNSIRVESGCWMLYERPNYQGQQYLLRRGEYPDYQQWMGLSDSIRSC | -0.141 ± 0.2
67 | ITFYEDLAFQGRSYETTTDCPNLQPYFSRCNSIRVESGCWMLYERPNYQGQQYLLRRGEYPDYQQWMGLSDSIRSC | -0.029 ± 0.12
68 | ITFYEDMAFQGRSYETTTDCPNLQPYFSRCNSIRVESGCWMLYERPNYQGQQYLLRRGEYPDYQQWMGLSDSIRSC | -0.444 ± 0.21
69 | ITFYEDNAFQGRSYETTTDCPNLQPYFSRCNSIRVESGCWMLYERPNYQGQQYLLRRGEYPDYQQWMGLSDSIRSC | 0.044 ± 0.12
70 | ITFYEDPAFQGRSYETTTDCPNLQPYFSRCNSIRVESGCWMLYERPNYQGQQYLLRRGEYPDYQQWMGLSDSIRSC | 0.219 ± 0.3
71 | ITFYEDQAFQGRSYETTTDCPNLQPYFSRCNSIRVESGCWMLYERPNYQGQQYLLRRGEYPDYQQWMGLSDSIRSC | 0.013 ± 0.073
72 | ITFYEDSAFQGRSYETTTDCPNLQPYFSRCNSIRVESGCWMLYERPNYQGQQYLLRRGEYPDYQQWMGLSDSIRSC | -0.117 ± 0.11
